According to US20260209362A1 (VIB VZW, published 2026):

T1: biotinylated recombinant mouse IL-12Rβ2 (produced in-house) (mouse, UniProt P97378 24-637, random biotinylated)
T1 construct: also called mIL-12RB2; mIL12RB2
T1 sequence: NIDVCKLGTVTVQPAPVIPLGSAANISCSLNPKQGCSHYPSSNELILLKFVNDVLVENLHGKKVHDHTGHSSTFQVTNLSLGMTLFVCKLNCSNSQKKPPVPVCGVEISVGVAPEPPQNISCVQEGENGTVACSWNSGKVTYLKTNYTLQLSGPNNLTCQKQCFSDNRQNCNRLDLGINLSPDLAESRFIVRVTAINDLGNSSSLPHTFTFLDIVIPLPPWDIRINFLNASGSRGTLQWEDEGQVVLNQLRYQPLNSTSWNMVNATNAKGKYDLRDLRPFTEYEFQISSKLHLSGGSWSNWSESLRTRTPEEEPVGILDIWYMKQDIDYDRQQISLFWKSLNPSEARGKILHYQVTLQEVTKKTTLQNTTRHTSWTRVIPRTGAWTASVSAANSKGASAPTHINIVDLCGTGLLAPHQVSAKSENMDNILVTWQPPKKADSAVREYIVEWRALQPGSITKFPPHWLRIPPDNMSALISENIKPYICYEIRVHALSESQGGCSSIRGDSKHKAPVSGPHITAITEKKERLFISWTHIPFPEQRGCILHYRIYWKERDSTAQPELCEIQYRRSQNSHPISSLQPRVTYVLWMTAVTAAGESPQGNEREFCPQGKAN

T2: mouse IL-12Rβ2 expressed on cells (mouse, UniProt P97378 24-874)
T2 construct: HEK293T cells, stably transduced (cDNA NM_008354); also called mIL-12RB2
T2 sequence: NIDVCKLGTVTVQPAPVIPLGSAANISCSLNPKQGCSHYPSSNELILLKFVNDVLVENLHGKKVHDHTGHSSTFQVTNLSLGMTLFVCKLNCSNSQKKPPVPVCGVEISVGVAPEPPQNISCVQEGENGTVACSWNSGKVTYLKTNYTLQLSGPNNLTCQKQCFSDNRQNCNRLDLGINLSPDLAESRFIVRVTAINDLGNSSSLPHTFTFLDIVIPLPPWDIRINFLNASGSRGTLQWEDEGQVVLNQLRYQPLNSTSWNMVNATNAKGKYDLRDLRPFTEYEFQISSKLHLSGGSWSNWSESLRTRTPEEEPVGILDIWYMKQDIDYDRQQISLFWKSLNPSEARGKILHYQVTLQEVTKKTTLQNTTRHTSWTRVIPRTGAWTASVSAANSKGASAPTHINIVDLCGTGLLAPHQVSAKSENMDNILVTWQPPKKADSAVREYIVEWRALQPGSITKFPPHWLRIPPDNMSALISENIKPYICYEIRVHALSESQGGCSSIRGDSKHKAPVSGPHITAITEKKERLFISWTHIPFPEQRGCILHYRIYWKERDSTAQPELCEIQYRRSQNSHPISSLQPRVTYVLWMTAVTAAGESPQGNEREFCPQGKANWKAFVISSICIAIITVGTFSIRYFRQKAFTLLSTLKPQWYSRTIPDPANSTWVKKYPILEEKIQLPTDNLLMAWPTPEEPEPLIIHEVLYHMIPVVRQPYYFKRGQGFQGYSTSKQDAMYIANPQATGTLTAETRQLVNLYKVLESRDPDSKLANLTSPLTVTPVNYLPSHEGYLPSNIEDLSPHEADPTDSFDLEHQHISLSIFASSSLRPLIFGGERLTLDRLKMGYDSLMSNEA

T3: biotinylated recombinant human IL-12Rβ2 (produced in-house) (human, UniProt Q99665 24-622, random biotinylated)
T3 construct: also called hIL-12RB2; hIL12RB2
T3 sequence: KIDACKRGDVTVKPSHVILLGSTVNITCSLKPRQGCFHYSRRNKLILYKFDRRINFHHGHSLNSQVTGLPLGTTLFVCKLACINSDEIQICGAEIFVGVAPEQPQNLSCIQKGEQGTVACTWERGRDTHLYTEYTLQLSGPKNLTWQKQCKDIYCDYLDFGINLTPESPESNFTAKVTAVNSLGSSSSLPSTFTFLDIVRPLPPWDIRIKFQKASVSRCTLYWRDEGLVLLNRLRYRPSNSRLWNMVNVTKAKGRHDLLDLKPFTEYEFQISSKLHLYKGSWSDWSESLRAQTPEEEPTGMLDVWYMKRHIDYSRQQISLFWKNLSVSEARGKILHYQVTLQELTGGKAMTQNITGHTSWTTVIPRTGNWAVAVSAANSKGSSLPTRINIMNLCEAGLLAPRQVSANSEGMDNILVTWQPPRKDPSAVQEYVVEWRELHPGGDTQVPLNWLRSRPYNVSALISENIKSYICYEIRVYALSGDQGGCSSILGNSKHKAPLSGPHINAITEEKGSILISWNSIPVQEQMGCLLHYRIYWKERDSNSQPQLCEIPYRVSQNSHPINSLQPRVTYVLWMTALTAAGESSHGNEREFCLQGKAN

B1: anti-IL-12Rβ2 VHH clone 3CRHM99 (VHH, not shown: small tags and cut ends)
VHH: QVQLQESGGGLVQPGGSLRLSCAASGISSSRLHVGWFRQSPGKEREFVAAISLSGGTQAYTDSVKGRFTISGDNVKNTAYLQMNSLRPEDTAVYYCAARERFIWTWSDLTYDYWGQGTQVTVSS
notes: tested as periplasmic extract; also called 21062
B2: anti-IL-12Rβ2 VHH clone 3CRHM14 (VHH, not shown: small tags and cut ends)
VHH: QVQLQESGGGLVQAGGSLRLSCAASGRTFSNYAMAWFRQAPGTEREFVAGLSGSGGDTEFYDDSVKGRFAISRDSAKNTVWLQMNSLKPEDTAVYYCAAATHVVVHYGLVRRRGTYDYWGQGTQVTVSS
notes: tested as periplasmic extract
B3: anti-IL-12Rβ2 VHH clone 3CAHM11 (VHH, not shown: small tags and cut ends)
VHH: QVQLQESGGGLVQAGGSLRLSCAASGRTFNNYAMAWFRQAPGKEREFIAAITRSDTTLYIDSVKGRFTISRDNAKNTVALQMNSLKPEDTAVYYCAAGMPYSYSDYPRDSKYDYWGRGTQVTVSS
notes: tested as periplasmic extract
B4: anti-IL-12Rβ2 VHH clone 3CRHM73 (VHH, not shown: small tags and cut ends)
VHH: QVQLQESGGGLVQAGGSLSLSCAASGSAFRLNFMGWYRQAPGKQRELVAAINSGGTEIYHDSVKGRFTISRDNADSTVWLQMNSLKPDDTAVYYCAADRGISWSKLAGGMDYWGKGTQVTVSS
notes: tested as periplasmic extract; also called 21060

Molecular target: T1, biotinylated recombinant mouse IL-12Rβ2 …
Test: BLI (Octet), P.E. VHH on immobilised biotinylated mIL-12RB2, 1:1 model

| koff [s⁻¹] | Binder |
| --- | --- |
| 0.00671 | B1 |
| 0.00483 | B2 |
| 0.00462 | B3 |
| 0.00605 | B4 |

Molecular target: T1, biotinylated recombinant mouse IL-12Rβ2 …
Test: ELISA, P.E. VHH on biotinylated mIL-12RB2, signal ratio to control well

| ELISA mIL12RB2/control | Binder |
| --- | --- |
| 5.24 | B1 |
| 25.1 | B2 |
| 38.8 | B3 |
| 26.3 | B4 |

Molecular target: T2, mouse IL-12Rβ2 expressed on cells
Test: flow cytometry, P.E. VHH on HEK293T cells stably expressing mIL-12RB2

| % cells bound [%] | dMFI | Binder |
| --- | --- | --- |
| 57.3 | 309 | B1 |
| 26.2 | 136 | B2 |
| 56.9 | 316 | B3 |
| 27.3 | 150 | B4 |

Molecular target: T1, biotinylated recombinant mouse IL-12Rβ2 …
Test: BLI (Octet), P.E. VHH on immobilised biotinylated mIL-12RB2

| Response | Binder |
| --- | --- |
| 0.812 | B1 |
| 0.957 | B2 |
| 1.03 | B3 |
| 0.944 | B4 |

Molecular target: T3, biotinylated recombinant human IL-12Rβ2 …
Test: ELISA, P.E. VHH on biotinylated hIL-12RB2, signal ratio to control well

| ELISA hIL12RB2/control | Binder |
| --- | --- |
| 4.24 | B1 |
| 3.11 | B2 |
| 3.04 | B3 |
| 6.9 | B4 |

Molecular target: T3, biotinylated recombinant human IL-12Rβ2 …
Test: BLI (Octet), P.E. VHH on immobilised biotinylated hIL-12RB2

| Response | Binder |
| --- | --- |
| 1.45 | B1 |
| 1.19 | B2 |
| 1.4 | B3 |
| 1.45 | B4 |

Molecular target: T3, biotinylated recombinant human IL-12Rβ2 …
Test: BLI (Octet), P.E. VHH on immobilised biotinylated hIL-12RB2, 1:1 model

| koff [s⁻¹] | Binder |
| --- | --- |
| 0.00634 | B1 |
| 0.00532 | B2 |
| 0.00519 | B3 |
| 0.00605 | B4 |
